Data on three substances can be found in US20130189283A1.

The test deals with Kv1.3 voltage-gated potassium channel on T cells in human whole blood (human) (UniProt P22001). As to the kind of experiment: cell-based or functional assay.
Kv1.3 voltage-gated potassium channel on T cells in human whole blood (human), sequence (P22001 whole entry): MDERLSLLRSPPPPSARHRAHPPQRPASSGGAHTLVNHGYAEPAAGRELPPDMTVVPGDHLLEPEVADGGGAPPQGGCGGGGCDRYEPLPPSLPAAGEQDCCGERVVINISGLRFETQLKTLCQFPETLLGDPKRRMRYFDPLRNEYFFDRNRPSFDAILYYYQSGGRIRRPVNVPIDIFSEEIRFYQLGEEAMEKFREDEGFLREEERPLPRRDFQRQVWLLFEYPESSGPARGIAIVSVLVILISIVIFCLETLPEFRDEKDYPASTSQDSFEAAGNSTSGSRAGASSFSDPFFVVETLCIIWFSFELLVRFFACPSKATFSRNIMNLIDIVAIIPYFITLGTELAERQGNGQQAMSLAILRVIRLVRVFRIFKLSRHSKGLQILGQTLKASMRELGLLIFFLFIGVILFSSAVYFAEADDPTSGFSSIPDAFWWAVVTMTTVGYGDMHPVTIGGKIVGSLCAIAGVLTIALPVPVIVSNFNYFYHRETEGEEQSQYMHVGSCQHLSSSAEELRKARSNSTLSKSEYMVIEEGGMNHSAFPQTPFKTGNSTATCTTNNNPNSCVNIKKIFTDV
20 kDa-PEG-ShK (peptide) gave a Potency Relative to ShK (WB, IL2) of 5.67 fold; a WB (IFNg) IC50 of 0.84 nM; a WB (IL-2) IC50 of 0.38 nM.

On to “Monovalent Fc/Fc-L10-ShK[2-35] heterodimer (Fc fusion)”, for which the Potency Relative to ShK (WB, IL2) worked out at 32.1 fold; the WB (IFNg) IC50 was found to be 5.2 nM; the WB (IL-2) IC50 came out at 2.15 nM.

ShK(1-35) (peptide) showed a Potency Relative to ShK (WB, IL2) of 1 fold; a WB (IFNg) IC50 of 0.078 nM; a WB (IL-2) IC50 of 0.067 nM.
